Laboratory results as given in the Human Domainome abundance scans (Beltran et al. 2025).
± gives the uncertainty stated by the source.

B1: POU domain, class 3, transcription factor 1, residues 247 to 324; numbered along this chain, Q03052 (parent)
chain: EDAPSSDDLEQFAKQFKQRRIKLGFTQADVGLALGTLYGNVFSQTTICRFEALQLSFKNMCKLKPLLNKWLEETDSSS

Variants of: B1
Assay: abundance fitness (aPCA) (normalised: wild type 0, dead -1); higher = more abundant; growth selection in yeast, the domain comes from the species named
Conditions: Homo sapiens

Row | Variant | abundance fitness
1 | EDAPSSDDLAQFAKQFKQRRIKLGFTQADVGLALGTLYGNVFSQTTICRFEALQLSFKNMCKLKPLLNKWLEETDSSS [E10A] | -0.178 ± 0.072
2 | EDAPSSDDLSQFAKQFKQRRIKLGFTQADVGLALGTLYGNVFSQTTICRFEALQLSFKNMCKLKPLLNKWLEETDSSS [E10S] | -0.433 ± 0.1
3 | EDAPSSDDLPQFAKQFKQRRIKLGFTQADVGLALGTLYGNVFSQTTICRFEALQLSFKNMCKLKPLLNKWLEETDSSS [E10P] | -0.432 ± 0.15
4 | EDAPSSDDLGQFAKQFKQRRIKLGFTQADVGLALGTLYGNVFSQTTICRFEALQLSFKNMCKLKPLLNKWLEETDSSS [E10G] | -0.361 ± 0.072
5 | EDAPSSDDLDQFAKQFKQRRIKLGFTQADVGLALGTLYGNVFSQTTICRFEALQLSFKNMCKLKPLLNKWLEETDSSS [E10D] | -0.136 ± 0.12
6 | EDAPSSDDLYQFAKQFKQRRIKLGFTQADVGLALGTLYGNVFSQTTICRFEALQLSFKNMCKLKPLLNKWLEETDSSS [E10Y] | -0.244 ± 0.18
7 | EDAPSSDDLFQFAKQFKQRRIKLGFTQADVGLALGTLYGNVFSQTTICRFEALQLSFKNMCKLKPLLNKWLEETDSSS [E10F] | -0.073 ± 0.11
8 | EDAPSSDDLRQFAKQFKQRRIKLGFTQADVGLALGTLYGNVFSQTTICRFEALQLSFKNMCKLKPLLNKWLEETDSSS [E10R] | -0.107 ± 0.057
9 | EDAPSSDDLNQFAKQFKQRRIKLGFTQADVGLALGTLYGNVFSQTTICRFEALQLSFKNMCKLKPLLNKWLEETDSSS [E10N] | -0.024 ± 0.13
10 | EDAPSSDDLKQFAKQFKQRRIKLGFTQADVGLALGTLYGNVFSQTTICRFEALQLSFKNMCKLKPLLNKWLEETDSSS [E10K] | -0.301 ± 0.17
11 | EDAPSSDDLCQFAKQFKQRRIKLGFTQADVGLALGTLYGNVFSQTTICRFEALQLSFKNMCKLKPLLNKWLEETDSSS [E10C] | -0.118 ± 0.098
12 | EDAPSSDDLTQFAKQFKQRRIKLGFTQADVGLALGTLYGNVFSQTTICRFEALQLSFKNMCKLKPLLNKWLEETDSSS [E10T] | -0.121 ± 0.1
13 | EDAPSSDDLQQFAKQFKQRRIKLGFTQADVGLALGTLYGNVFSQTTICRFEALQLSFKNMCKLKPLLNKWLEETDSSS [E10Q] | -0.144 ± 0.15
14 | EDAPSSDDLMQFAKQFKQRRIKLGFTQADVGLALGTLYGNVFSQTTICRFEALQLSFKNMCKLKPLLNKWLEETDSSS [E10M] | -0.037 ± 0.08
15 | EDAPSSDDLHQFAKQFKQRRIKLGFTQADVGLALGTLYGNVFSQTTICRFEALQLSFKNMCKLKPLLNKWLEETDSSS [E10H] | 0.243 ± 0.12
16 | EDAPSSDDLIQFAKQFKQRRIKLGFTQADVGLALGTLYGNVFSQTTICRFEALQLSFKNMCKLKPLLNKWLEETDSSS [E10I] | -0.456 ± 0.27
17 | EDAPSSDDLWQFAKQFKQRRIKLGFTQADVGLALGTLYGNVFSQTTICRFEALQLSFKNMCKLKPLLNKWLEETDSSS [E10W] | -0.107 ± 0.089
18 | EDAPSSDDLEQFWKQFKQRRIKLGFTQADVGLALGTLYGNVFSQTTICRFEALQLSFKNMCKLKPLLNKWLEETDSSS [A13W] | -0.903 ± 0.27

Row | Variant | abundance fitness
19 | EDAPSSDDLEQFSKQFKQRRIKLGFTQADVGLALGTLYGNVFSQTTICRFEALQLSFKNMCKLKPLLNKWLEETDSSS [A13S] | -0.53 ± 0.1
20 | EDAPSSDDLEQFFKQFKQRRIKLGFTQADVGLALGTLYGNVFSQTTICRFEALQLSFKNMCKLKPLLNKWLEETDSSS [A13F] | -0.972 ± 0.41
21 | EDAPSSDDLEQFTKQFKQRRIKLGFTQADVGLALGTLYGNVFSQTTICRFEALQLSFKNMCKLKPLLNKWLEETDSSS [A13T] | -0.691 ± 0.18
22 | EDAPSSDDLEQFIKQFKQRRIKLGFTQADVGLALGTLYGNVFSQTTICRFEALQLSFKNMCKLKPLLNKWLEETDSSS [A13I] | -0.43 ± 0.14
23 | EDAPSSDDLEQFYKQFKQRRIKLGFTQADVGLALGTLYGNVFSQTTICRFEALQLSFKNMCKLKPLLNKWLEETDSSS [A13Y] | -0.505 ± 0.2
24 | EDAPSSDDLEQFKKQFKQRRIKLGFTQADVGLALGTLYGNVFSQTTICRFEALQLSFKNMCKLKPLLNKWLEETDSSS [A13K] | -0.402 ± 0.15
25 | EDAPSSDDLEQFCKQFKQRRIKLGFTQADVGLALGTLYGNVFSQTTICRFEALQLSFKNMCKLKPLLNKWLEETDSSS [A13C] | 0.113 ± 0.086
26 | EDAPSSDDLEQFVKQFKQRRIKLGFTQADVGLALGTLYGNVFSQTTICRFEALQLSFKNMCKLKPLLNKWLEETDSSS [A13V] | -0.047 ± 0.063
27 | EDAPSSDDLEQFGKQFKQRRIKLGFTQADVGLALGTLYGNVFSQTTICRFEALQLSFKNMCKLKPLLNKWLEETDSSS [A13G] | -0.828 ± 0.14
28 | EDAPSSDDLEQFDKQFKQRRIKLGFTQADVGLALGTLYGNVFSQTTICRFEALQLSFKNMCKLKPLLNKWLEETDSSS [A13D] | -1.07 ± 0.45
29 | EDAPSSDDLEQFEKQFKQRRIKLGFTQADVGLALGTLYGNVFSQTTICRFEALQLSFKNMCKLKPLLNKWLEETDSSS [A13E] | -0.416 ± 0.14
30 | EDAPSSDDLEQFMKQFKQRRIKLGFTQADVGLALGTLYGNVFSQTTICRFEALQLSFKNMCKLKPLLNKWLEETDSSS [A13M] | -0.383 ± 0.17
31 | EDAPSSDDLETFAKQFKQRRIKLGFTQADVGLALGTLYGNVFSQTTICRFEALQLSFKNMCKLKPLLNKWLEETDSSS [Q11T] | 0.036 ± 0.099
32 | EDAPSSDDLEEFAKQFKQRRIKLGFTQADVGLALGTLYGNVFSQTTICRFEALQLSFKNMCKLKPLLNKWLEETDSSS [Q11E] | -0.002 ± 0.072
33 | EDAPSSDDLEPFAKQFKQRRIKLGFTQADVGLALGTLYGNVFSQTTICRFEALQLSFKNMCKLKPLLNKWLEETDSSS [Q11P] | -0.299 ± 0.12
34 | EDAPSSDDLEHFAKQFKQRRIKLGFTQADVGLALGTLYGNVFSQTTICRFEALQLSFKNMCKLKPLLNKWLEETDSSS [Q11H] | 0.121 ± 0.17
35 | EDAPSSDDLESFAKQFKQRRIKLGFTQADVGLALGTLYGNVFSQTTICRFEALQLSFKNMCKLKPLLNKWLEETDSSS [Q11S] | -0.002 ± 0.07
